In a protein production outcome set (Wang et al. 2014):

Experiment: label from the status in PepcDB records

Row | Sequence | protein production
1 | MNKTFVGFIFLLFLVGGVVSCQRSSSPYPYSLRYADSLMEISPERTLAYLRKLDVSTYSAGDRAYFSLLFTQATDKNMLSLLPCDSLIDTALDYYIKKDGVNWAKAWLYKGRIQKKMNMTEQALKSCFTALQGVEGNTGEELKLKGMLYEDMGSIYLHQSLYQKAFDAFYRSYQCDSLLNDHRLVMYPLSNMGWVRVIQGKTVEAFYYLNQSIQLALRLNDSAFVSDIYERMSLNCENVDSAFLYAHLSHQYLTKDGDSISLWLTFGDLYLDKQELDSAEYYLKRILDTADFKRKILASYSLAEVEKIRGNYQRAFEYQSYYGDNIDSIFLLNKASDIERLAYKYDSEAKVVKEKEKQRFLIQQLCYGGVLFLLVIVVIFQRVYRRRQIARLLYEQRITYLNEKTALSQLQIERLEVQISALKQSGMEREQEIDLKQAELCCVIDEKARLRNCLFMETSIFKHIRELSTQPRLGQNGTKGSPKVLLMKEQEQLKNILFGIYDDYIRYLKGTYPKITDNDCIYCCLKLCEFDDQTIAYCFGNVSKQIVAQRRLRLKKKMAEAN | failed
2 | MSDIISIKDIDLAKKKVFIRCDFNVPQDDFLNITDDRRIRSAIPTIRYCLDNGCSVILASHLGRPKEISSKYSLEPVAKRLARLLDKEIVMAKDVIGEDAKTKAMNLKAGEILLLENLRFEKGETKNDENLAKELASMVQVYINDAFGVCHRAHSSVEAITKFFDEKHKGAGFLLQKEIDFASNLIKHPARPFVAVVGGSKVSGKLQALTNLLPKVDKLIIGGGMAFTFLKALGYDIGNSLLEEELLEEANKILTKGKNLGVKIYLPVDVVAAPACSQDVPMKFVPAQEIPNGWMGLDIGPASVRLFKEVISDAQTIWWNGPMGVFEIDKFSKGSIKMSHYISEGHATSVVGGGDTADVVARAGDADEMTFISTGGGASLELIEGKELPGVKALRSKENE | not failed
3 | MVGKSKSPEFNFEDGMAYFDAVKVALQDTEPEKYQEFVRIFIDYTANRFGFETLSASLQELLRDHANLCHGSNVLLPFRLQTAIPPEASAEFHINKVVGRSVPPAVAVPTMDDATSYLNAVKEAFHDEPAKYMEITKLLTDLKARRINAASVIARMEELLKDHLNLLLGFCVFLSPTRRFITKLKARFLGDGSQVVDSVLQILRMHSEGNKSKDEASQEVRALIQGHEDLLMELSEIFSDP | failed
4 | MEEKKSSGMFAVFAALGANVLVAISKFIGFGLSGSAAMLNESIHSVVDCGNQILLLFGDRRSRQASTNLHQFGEARAKYFFSMIVATFLFFGGGVIGVMEAYDKLVHPAHSVENAGIVIGILLIGMAIEGSSLRVAFKEISELNTEKLPIFKFLHESRHSEILVIFAEDLCAIIGLLLALLGTVLTMVTGNPIFDAISGLLIGFLLMAAAIFLTREFYSLIVGERVTDSDLEKILTAFDRPEVERVINVKTVHLGPTEILIAAKIDLVSKLVLEDYEIINQIEAEIRKKISDKKCYIYIEIDEFVQGYVQSSDL | failed
5 | MQKTAFIWDLDGTLLDSYEAILSGIEETFAQFSIPYDKEKVREFIFKYSVQDLLVRVAEDRNLDVEVLNQVRAQSLAEKNAQVVLMPGAREVLAWADESGIQQFIYTHKGNNAFTILKDLGVESYFTEILTSQSGFVRKPSPEAATYLLDKYQLNSDNTYYIGDRTLDVEFAQNSGIQSINFLESTYEGNHRIQALADISRIFETK | not failed
6 | MNEKTLHLDKKSAVVGGLNLSQTKIFGTPLPLFLFLLLTVLAAHFTDTLPSGLVGGFAFMFVIGAIFGEVGKRLPIFNKYIGGAPVMIFLVAAWFVHMGWLSDREIKTVTEVMDKSKFLDLFIAVLITGSILAVNRKLLIRSLAGYIPTILAAVAGAAVFGIAIGLVFGITPDRIMMLYVLPIMGGGNGAGAIPLSEIYESVTGGSKEQYYSVAIAILTIANIVAIVAAAVINIIGEKIPSLTGNGELVRSSKLDVSEEAKNLTVTHREIAIGLMLAACVYTFSYALSKEILPGFGSIQIHTFAYMVVIIAILNAAGLCSDEIKEGAKRLSNFFSKQMLWLLMVGVGIAYTDLAEIINALTFANVIIATVIVLGAIIGAALGGWAMGFYPVEASITAGLCMANRGGSGDLEVLAASNRMSLLSYAQISSRLGGGIVLVIASVVFGMFV | failed
7 | MNILSRIFARTPSLRTRVVVATAIGAAIPVLIVGTVVWVGITNDRKERLDRRLDEAAGFAIPFVPRGLDEIPRSPNDQDALITVRRGNVIKSNSDITLPKLQDDYADTYVRGVRYRVRTVEIPGPEPTSVAVGATYDATVAETNNLHRRVLLICTFAIGAAAVFAWLLAAFAVRPFKQLAEQTRSIDAGDEAPRVEVHGASEAIEIAEAMRGMLQRIWNEQNRTKEALASARDFAAVSSHELRTPLTAMRTNLEVLSTLDLPDDQRKEVLNDVIRTQSRIEATLSALERLAQGELSTSDDHVPVDITDLLDRAAHDAARIYPDLDVSLVPSPTCIIVGLPAGLRLAVDNAIANAVKHGGATLVQLSAVSSRAGVEIAIDDNGSGVPEGERQVVFERFSRGSTASHSGSGLGLALVAQQAQLHGGTASLENSPLGGARLVLRLPGPS | not failed
8 | MKPSKYSVKAQGHGSSYMPMEVTLSKDKIEDINVDASGETRGVADEVFNRLPKLIVDNQTLNIDAVSGATISSHGVIDGVAQTINEAGGNSEEWKRRAKPRKVLLKKTKNMILMLEHHHHHH | not failed
9 | MVQELLKQLQNGEAKFADVLAYIESRFEHQPTAFKNGQQQNAATENQGSAKVFSLAQIEGLNQTETLSLFAEHYAAVLNTPEGTDHQNIRQFMQHGWDGVTFEGEALQAK | failed
10 | MLTLVLASAQSPDLRGRGPDMEPRSSVAKSGVALGVLLLIGLPVAAQNSKVKTNYLSHIEPCNGVGATPLDVRIDACTAFIEASQGTTAALAIAYNNRGNAYTAKGDYDKAIRDFDQSIALKPTYAKAFNNRGVAYLRKGEYELAIEAFDDAIKLDPDYVAAFVNRAGAYLKKNDHQRAAHDYDEAIRLQPDSQAARSGRCWTRAVLGAWQAALEDCDRALQSGSTSAAVYDSRGLIHLKMGEFGAAIADYNSALRAAPELASALFGRGLAKLKQGDAIGGDSDISAAKTIQGNIGDEFAHYGVGRD | failed
11 | MKIKANGNEVQIEREMTIFEMLDALNVSMKEYVTVQLNGQIIPRSEYDKVTVKDGDEVEFLYFMGGGLL | failed
12 | MSVADSYFDELFRNNDDPWAFKQRWYERRKRALTLAALPRERYRAIFEPGCANGELSADLAERCDMLVCCDTSTQAVELARQRLADVPHARVVQARLPHQWPAGQFDLIVFSELGYYLDAADLHRLIDCALAALSPDGQLLACHWRPDIEGCPLNAQAVHAILAERLSMHRLFSHHEQDFLLDLWSRDGTSVAELEHHHHHH | not failed
13 | MQVELIIKNLKVYNSYFKKFIKSDVLINEGKFLHIGKGYEDRLWSENIIDGEDKYIIPGLIDIHMHIESSMTIPREFSKAAIKHGVTTVVADPHEIANVFGVRGIEEFIKFKGNLDIFYGILEHHHHHH | failed
14 | MKLLVVDDSSTMRRIIKNTLSRLGYEDVLEAEHGVEAWEKLDANADTKVLITDWNMPEMNGLDLVKKVRSDSRFKEIPIIMITTEGGKAEVITALKAGVNNYIVKPFTPQVLKEKLEVVLGTND | failed
15 | TDPDADRLGVEIRQPDGSYKNLSGNQIGAIIAKYILEAHKTAGTLPENAALAKSIVSTELVTKIAESYGATMFNVLTGFKFIAEKIQEFEEKHNHTYMFGFEESFGYLIKPFVRDKDAIQAVLLVAEIAAYYRSRGLTLADGIDEIYKEYGYFAE | failed
16 | MDIDLSAFHFLRPWWLLAVPLAALLWWARRGERGAPGRDLRIAPALLPYLVLRTPGSRGPRPIDALALFLALGGVAAAGPAWQRDEPAYLDNVAPLIVALDLSASMDGADVPPTRLEAARRVLRDLAARRAAARTGLIAYAGSSHLVLPPTDDAALLDLFAQALATGLIERPGRDADGAIALAAQALAAERAGGTLLILTDGADRARMDAVRRQAQAARDMQVLVMAVGVNGIDTQALQELARAAGAALGSLTGGPDDQDWIALHAQAHFRAVQDAQSGPVHWKDAGYWLCWPLALLALLAVRRGWSVAWSAGVLVVAMAGMPQPARADALADAFLTADQQGRRAFEHGRYDAAARHFHDPNWKGRAAYQAGDYRAALAAFSTLPSAEGYFYVGNTQTRLHRYDAALAAYDRALALRPGWQPAVVNRGIVARLLAAMAQTQQDQPAEPPDRTIADRSAQAGKMSQAPVAQAGSEEAWLRNLTLSPARFLRSKFAVEDAAAGTRP | failed
17 | MSSLILSTFAERLTELGQRTTFLELPPYLDRSFPNSNSGKVVQVGKYLPPEVKHKAVDLLREYKDV | failed
18 | MDIRRIVLYMALALIGLSLWNAWQIDYPAKQPVEEKTASQLTSDGHLLPQIIPSNAEQPVTLKAEEKASSGKQLIQVKTDVLDVDIDLKNGDIVKGLLLDYPLSVEDKNKPFPLLQNQASQRYVANSSLFVLDGQTPQSLDFDFTSEKEYYELKPDQNQLIVTLNGKSEDGLDVKKEFVFTKGSYLIEVNYKIANTGNSLWKGYFNTQLLRSSPKEDKSSIFHIGSYTGASFSNPGKNRYQKVSFSDMSKSNLDVDAKGGWIAMQQHYFLSAWVPNADSENKFYTLATDKDYTIGAVSQPITVKPKEDKIVGSKLYIGPEITSVLKGISPSLDLTVDYGILWFLSSLLFSLMKAIYTVVGNWGWSIVLVTVLIKLAFYRLSATSYKSMASMRKLQPKLQALRERYGDDKAKISQATMELYKQEKVNPLGGCLPILIQIPVFIALYWVLLESVELRQAPFIFWINDLASADPYHVLPLIMGATMLIQQKLNPAPADPMQAKVMMFLPILFTGLFWNFPSGLVLYWIVNNTLSILQQWYITRKYSDEKPAKKVVATAK | failed
19 | MGNNFAQLKRLINFFRTVILPARISQLILQTFLKWQKDNCMDMGAALAYYALFSLFPICLVMLSIAGRLLGADSNYYLQLISFAQNILPEQPFKVFQQALTNLNQSSFSAGLIGFGILVLTASRIFDALNQSVKKIWSVVHQPKENIGVKHHAFNFIRNKILAFLLVLSTVMVFLLSIFANLAAKIFLTVLAEFGQSIPWVTFDSLGLITTLQTSISYFLITVVIITLFKVLPPVRLQWWDIFPGAILTAATMMALQNAVGSGIIRIGENLQAYGVVGNVMVLLLWIYLIFQVFFIGCEFTFVFTYIFGSRHQKEKPF | failed
20 | MVFMANKKKTKGKKTRRPTKAEIERQRAIQRMITALVLTIILFFGIIRLGIFGITVYNVIRFMVGSLAYLFIAATLIYLYFFKWLRKKDSLVAGFLIASLGLLIEWHAYLFSMPILKDKEILRSTARLIVSDLMQFKITVFAGGGMLGALIYKPIAFLFSNIGAYMIGVLFIILGLFLMSSLEVYDIVEFIRAFKNKVAEKHEQNKKERFAKREMKKAIAEQERIERQKAEEEAYLASVNVDPETGEILEDQAEDNLDDALPPEVSETSTPVFEPEILAYETSPQNDPLPVEPTIYLEDYDSPIPNMRENDEEMVYDLDDDVDDSDIENVDFTPKTTLVYKLPTIDLFAPDKPKNQSKEKDLVRKNIRVLEETFRSFGIDVKVERAEIGPSVTKYEIKPAVGVRVNRISNLSDDLALALAAKDVRIETPIPGKSLIGIEVPNSEIATVSFRELWEQSDANPENLLEVPLGKAVNGNARSFNLARMPHLLVAGSTGSGKSVAVNGIISSILMKARPDQVKFMMIDPKMVELSVYNDIPHLLIPVVTNPRKASKALQKVVDEMENRYELFSKIGVRNIAGYNTKVEEFNASSEQKQIPLPLIVVIVDELADLMMVASKEVEDAIIRLGQKARAAGIHMILATQRPSVDVISGLIKANVPSRIAFAVSSGTDSRTILDENGAEKLLGRGDMLFKPIDENHPVRLQGSFISDDDVERIVGFIKDQAEADYDDAFDPGEVSETDNGSGGGGGVPESDPLFEEAKGLVLETQKASASMIQRRLSVGFNRATRLMEELEAAGVIGPAEGTKPRKVLMTPTPSE | failed
